# Measured values published in publication PMC6741145.
# Biological target: His6‐tagged DP1 (small subunit of DNA polymerase D) of Thermococcus sp. 4557 (Thermococcus sp. 4557)
# Assay: SEC; 100 µg of each protein or mixture on Superdex‐200 HR10/30 in 25 mM Tris‐HCl pH 7.5, 100 mM NaCl, 10% glycerol; fractions on SDS–PAGE, Coomassie
substance,measurement,value
His6‐tagged DP1 (small subunit of DNA polymerase D) of Thermococcus sp. 4557 (enzyme),stoichiometry N,2
